Source: patent US20220290113A1

Molecular target: Plasmid-expressed Nme2Cas9 (human-codon-optimized, with NLSs and 3xHA tag), expressed in HEK293T cells (Neisseria meningitidis strain Del1444)
Experiment: cell-based or functional assay
Conditions: scale: mass ratio of Acr plasmid to Nme2Cas9 plasmid

Substance	dose dependence of Acr inhibition of Nme2Cas9 genome editing: mass ratio of cotransfected Acr and Nme2Cas9 plasmids giving full inhibition
AcrIIC1Nme	2
AcrIIC4Hpa	1
